Assay results: paper doi:10.64898/2025.12.22.696049 (bioRxiv, 2025)
One block for each molecule: values may come before it.

Tests used:
Experiment in all cases: cryo-EM structure
[1] = target: S. cerevisiae fatty acid synthase subunit FAS1/ß (S. cerevisiae (endogenous in W303 or BY4742 cells)) (UniProt P07149)
[2] = target: S. pombe fatty acid synthase subunit FAS1/ß (S. pombe (endogenous in K972 cells)) (UniProt Q9UUG0)
cryo-EM structure = target: the molecule itself

B1: S. cerevisiae fatty acid synthase subunit FAS2/α (enzyme, UniProt P19097 1-1887, looked up)
chain: MKPEVEQELAHILLTELLAYQFASPVRWIETQDVFLKDFNTERVVEIGPSPTLAGMAQRTLKNKYESYDAALSLHREILCYSKDAKEIYYTPDPSELAAKEEPAKEEAPAPTPAASAPAPAAAAPAPVAAAAPAAAAAEIADEPVKASLLLHVLVAHKLKKSLDSIPMSKTIKDLVGGKSTVQNEILGDLGKEFGTTPEKPEETPLEELAETFQDTFSGALGKQSSSLLSRLISSKMPGGFTITVARKYLQTRWGLPSGRQDGVLLVALSNEPAARLGSEADAKAFLDSMAQKYASIVGVDLSSAASASGAAGAGAAAGAAMIDAGALEEITKDHKVLARQQLQVLARYLKMDLDNGERKFLKEKDTVAELQAQLDYLNAELGEFFVNGVATSFSRKKARTFDSSWNWAKQSLLSLYFEIIHGVLKNVDREVVSEAINIMNRSNDALIKFMEYHISNTDETKGENYQLVKTLGEQLIENCKQVLDVDPVYKDVAKPTGPKTAIDKNGNITYSEEPREKVRKLSQYVQEMALGGPITKESQPTIEEDLTRVYKAISAQADKQDISSSTRVEFEKLYSDLMKFLESSKEIDPSQTTQLAGMDVEDALDKDSTKEVASLPNKSTISKTVSSTIPRETIPFLHLRKKTPAGDWKYDRQLSSLFLDGLEKAAFNGVTFKDKYVLITGAGKGSIGAEVLQGLLQGGAKVVVTTSRFSKQVTDYYQSIYAKYGAKGSTLIVVPFNQGSKQDVEALIEFIYDTEKNGGLGWDLDAIIPFAAIPEQGIELEHIDSKSEFAHRIMLTNILRMMGCVKKQKSARGIETRPAQVILPMSPNHGTFGGDGMYSESKLSLETLFNRWHSESWANQLTVCGAIIGWTRGTGLMSANNIIAEGIEKMGVRTFSQKEMAFNLLGLLTPEVVELCQKSPVMADLNGGLQFVPELKEFTAKLRKELVETSEVRKAVSIETALEHKVVNGNSADAAYAQVEIQPRANIQLDFPELKPYKQVKQIAPAELEGLLDLERVIVVTGFAEVGPWGSARTRWEMEAFGEFSLEGCVEMAWIMGFISYHNGNLKGRPYTGWVDSKTKEPVDDKDVKAKYETSILEHSGIRLIEPELFNGYNPEKKEMIQEVIVEEDLEPFEASKETAEQFKHQHGDKVDIFEIPETGEYSVKLLKGATLYIPKALRFDRLVAGQIPTGWNAKTYGISDDIISQVDPITLFVLVSVVEAFIASGITDPYEMYKYVHVSEVGNCSGSGMGGVSALRGMFKDRFKDEPVQNDILQESFINTMSAWVNMLLISSSGPIKTPVGACATSVESVDIGVETILSGKARICIVGGYDDFQEEGSFEFGNMKATSNTLEEFEHGRTPAEMSRPATTTRNGFMEAQGAGIQIIMQADLALKMGVPIYGIVAMAATATDKIGRSVPAPGKGILTTAREHHSSVKYASPNLNMKYRKRQLVTREAQIKDWVENELEALKLEAEEIPSEDQNEFLLERTREIHNEAESQLRAAQQQWGNDFYKRDPRIAPLRGALATYGLTIDDLGVASFHGTSTKANDKNESATINEMMKHLGRSEGNPVIGVFQKFLTGHPKGAAGAWMMNGALQILNSGIIPGNRNADNVDKILEQFEYVLYPSKTLKTDGVRAVSITSFGFGQKGGQAIVVHPDYLYGAITEDRYNEYVAKVSAREKSAYKFFHNGMIYNKLFVSKEHAPYTDELEEDVYLDPLARVSKDKKSGSLTFNSKNIQSKDSYINANTIETAKMIENMTKEKVSNGGVGVDVELITSINVENDTFIERNFTPQEIEYCSAQPSVQSSFAGTWSAKEAVFKSLGVKSLGGGAALKDIEIVRVNKNAPAVELHGNAKKAAEEAGVTDVKVSISHDDLQAVAVAVSTKK
stoichiometry N (cryo-EM structure): 6

B2: S. pombe fatty acid synthase subunit FAS2/α (enzyme, S. pombe (endogenous in K972 cells), UniProt Q10289 1-1842, looked up)
chain: MRPEVEQELAHTLLLELLAYQFASPVRWIETQDVILSPPVSAERIVEIGPSPTLAGMAKRTLKLKYENMDAALSINREVLCYSKDAREIYYNFEDEVADEPAEAPASTSSTPKVETAAAAAPAATPAPAPAQTSAPAAALPDEPPKALEVLHTLVAQKLKKSIEEVSPQKSIKDLVGGKSTLQNEILGDLQKEFGATPEKPEEVPLDELGAIMQSSFNGSLGKQSSSLISRMISSKMPGGFNNSAVRGYLGNRYGLGPGRLESVLLLALTMEPASRLGSEADAKAWLDSVAQKYAARNGVTLSSPTAEGGSSSGSAAVIDEETFKKLTKNNTMLVTQQLELFARYLNKDLRAGQKAQVAEKVISDTLRAQLDLWNEEHGEFYASGIAPIFSPLKARVYDSDWNWARQDALKMFFDIIFGRLKHVDTEIVARCISVMNRSNPTLLEFMQYHIDHCPAEKGETYQLAKTLGQQLIDNCKSVIDAPPVFKNVNHPTAPSTTIDERGNLNYEEIPRPGVRKLTHYVTEMAKGGKLPTESKNKAKVQNDLARIYRIIKSQNKMSRSSKLQIKQLYGQVLHALSLPLPSSNDEQTPVKETIPFLHIRKKSVDGNWEFNKSLTGTYLDVLESGAKNGITYQDKYALVTGAGAGSIGAQIVEGLLAGGAKVVVTTSRFSRKVTEFYQSLYTRHGSRGSCLIVVPFNQGSKTDVEALIDYIYDEKKGLGWNLDYIVPFAAIPENGREIDGIDSRSEFAHRIMLTNILRLLGAVKSQKASRGMDTRPAQVILPLSPNHGTFGNDGLYSESKLGLETLFNRWYSESWANYLTICGAVIGWTRGTGLMAPNNIVSQGIEKYGVRTFSQSEMAFNILGLMSQKVVDLCQSEPIYANLNGGLELLPDLKDLSTRLRTELLETAEIRRAVAAETAFDHSITNGPDSEAVFQKTAIQPRANLKFNFPKLKPYEALSHLSDLRGMVDLEKVPVVTGFSEVGPWGNSRTRWDMECYGEFSLEGCVEIAWIMGLIKNFNGKGKDGKPYSGWVDTKTGEPVDDKDVKAKYEKYILEHCGIRIIEAELFHGYNPEKKELLQEVVIDHDLEPFEASKEAAHEFKLRHGDQVEIFEIPDSTEWSVRFKRGTSMLIPKALRFDRFVAGQIPLGWDPKRYGIPDDIISQVDPTTLYVLVSTVEALVASGITDPYECYKYIHVSELGNTVGSGIGGMSALRGMYKDRWTDKPVQKDILQESFINTANAWINMLLLSASGPIKTPVGACATAVESVDAAVDLITSGKARICISGGYDDFSEEGSYEFANMGATSNAAKETERGRTPQEMSRPATSTRDGFMESQGAGVQIIMQAKLAIEMGVPIHGIVGYVSTAMDKQGRSVPAPGQGILTGAREIATKTPLPIVDLKFRSRQLQRRRSQIGEWAEREYLYLEEELDAMKVQNPDLDLEAYRIERINVIKEEVVRQEKEALNTFGNEFWKRDPTIAPIRGALAVWGLTIDDLGVASFHGTSTKANEKNECDVIDSQLTHLGRSKGNAVYGVFQKYLTGHSKGGAGAWMLNGALQILRSGFVPGNRNADNIDEYLARFDRVMFPSEGIQTDGIKAASVTAFGFGQVGGQVIVIHPDYIYGVIDEATYNAYKAKTAARYKASYRYTHDALVYNNLVRAKDSPPYTKEQEKAVYLNPLARASKSKAGTWTFPATLPAESDISKTNETTRTLQSLTTSLTNSNENVGVDVELVSAISIDNETFIERNFTDTERKYCFAAPNPQASFAGRWSAKEAVFKSLGISGKGAAAPLKDIEIISSESGAPEVVLHGEAAKAATTAGVKSVSVSISHDDNQSVSVALAHK
stoichiometry N (cryo-EM structure): 6

Other lines, results leading:

stoichiometry N [1]: 3
Molecule: S. cerevisiae fatty acid synthase subunit FAS1/ß, P07149 1-2051

stoichiometry N [2]: 3
Molecule: S. pombe fatty acid synthase subunit FAS1/ß, Q9UUG0 1-2073
